Assay results: patent publication US20040005659

Biological target: T1, β-casein (Sigma, St Louis, Mo.), P02666
T1 chain: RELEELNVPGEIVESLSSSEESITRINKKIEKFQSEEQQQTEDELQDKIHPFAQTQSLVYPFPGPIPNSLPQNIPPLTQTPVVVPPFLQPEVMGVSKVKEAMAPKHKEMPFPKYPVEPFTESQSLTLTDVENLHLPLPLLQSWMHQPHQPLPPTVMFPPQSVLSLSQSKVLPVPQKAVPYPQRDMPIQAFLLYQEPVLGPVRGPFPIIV

B1: PRSS11-L CDS-HAHIS (recombinant human PRSS11-L protease with a C-terminal HA6HIS epitope/affinity tag, expressed in baculovirus-infected Sf9 cells) (protein)
chain: MHLALPASAGLHQLSSPRYKFNFIADVVEKIAPAVVHIELFLRHPLFGRNVPLSSGSGFIMSEAGLIITNAHVVSSNSAAPGRQQLKVQLQNGDSYEATIKDIDKKSDIATIKIHPKKKLPVLLLGHSADLRPGEFVVAIGSPFALQNTVTTGIVSTAQREGRELGLRDSDMDYIQTDAIINYGNSGGPLVNLDGEVIGINTLKVTAGISFAIPSDRITRFLTEFQDKQIKDWKKRFIGIRMRTITPSLVDELKASNPDFPEVSSGIYVQEVAPNSPSQRGGIQDGDIIVKVNGRPLVDSSELQEAVLTESPLLLEVRRGNDDLLFSIAPEVVM
  cleavage of β-casein, SDS-PAGE with Coomassie Brilliant Blue staining: The proteolytic activity of PRSS11-L was further confirmed by its cleavage of casein.
